Test results from patent US20240245800A1, “HIGHLY SPECIFIC RABBIT SINGLE -DOMAIN ANTIBODIES FOR DRUG DELIVERY IN IMMUNOTHERAPY APPLICATIONS” (TECHNOPHAGE, INVESTIGAÇÃO E DESENVOLVIMENTO EM …, priority 2021, published 2024).

Key:
[1] = biological target: T1, Human Topoisomerase I (Homo sapiens, UniProt P11387); assay: DNA Topo I activity assay (Human Topoisomerase I Assay Kit); assay type: biochemical; settings: 10 U Topo I, supercoiled DNA, agarose gel
T1 construct: purchased Topogen
T1 sequence (P11387 1-765): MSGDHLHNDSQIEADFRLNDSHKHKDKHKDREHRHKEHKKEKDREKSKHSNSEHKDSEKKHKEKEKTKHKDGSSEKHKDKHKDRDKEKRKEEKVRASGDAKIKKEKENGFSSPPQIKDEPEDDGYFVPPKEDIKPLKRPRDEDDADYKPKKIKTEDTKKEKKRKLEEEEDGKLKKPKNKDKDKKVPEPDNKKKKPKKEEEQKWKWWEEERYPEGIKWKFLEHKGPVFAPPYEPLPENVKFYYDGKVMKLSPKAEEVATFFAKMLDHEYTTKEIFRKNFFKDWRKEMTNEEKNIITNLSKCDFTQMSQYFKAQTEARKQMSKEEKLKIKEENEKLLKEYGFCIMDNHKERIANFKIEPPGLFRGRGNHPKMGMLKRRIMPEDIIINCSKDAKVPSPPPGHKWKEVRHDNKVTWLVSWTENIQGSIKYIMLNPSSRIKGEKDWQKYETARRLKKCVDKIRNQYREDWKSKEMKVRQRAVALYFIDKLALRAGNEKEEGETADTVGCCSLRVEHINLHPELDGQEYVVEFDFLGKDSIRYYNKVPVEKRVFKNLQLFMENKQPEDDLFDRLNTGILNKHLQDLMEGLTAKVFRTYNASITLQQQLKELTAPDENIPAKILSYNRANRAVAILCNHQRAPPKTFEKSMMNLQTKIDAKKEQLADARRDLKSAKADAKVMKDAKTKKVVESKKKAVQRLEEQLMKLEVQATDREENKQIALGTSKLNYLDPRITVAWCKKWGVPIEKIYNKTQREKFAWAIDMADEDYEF
Method: FIG. 11—Cytotoxic effects of C5-DAB-SN-38. To determine the effect of C5-DAB-SN-38 on CLBL-1 and Jurkat cells, a cell viability assay was performed using the WST-1 reagent. 6×10^4 cells were seeded and treated with increasing amounts of compound. After 48 h treatment, cell viability was assessed. […] B) On the other hand, ADC had no effect on Jurkat cells, proving the specificity of the ADC. C5 was used as control. Best-fit EC50 values of each formulation were calculated using GraphPad Prism software (version 9.2.0, San Diego, CA, USA) using the log (inhibitor) vs response (variable slope) function. D) Effects of C5-DAB-SN-38 on DNA TopoI activity. To evaluate the effects of C5-DAB-SN-38 on DNA Topo I, we evaluated its activity using the Human Topoisomerase I Assay Kit. After incubation of C5-DAB-SN-38 with 1× reaction buffer and 10 U of Topo I for 1 h at 37° C., the supercoiled DNA was added. To stop the reaction, stop loading buffer was added. DNA TopoI activity was visualized by 1% agarose gel electrophoresis […] with ethidium bromide. Relaxed DNA indicated TopoI activity while supercoiled DNA indicated an inhibition. […] Relaxed DNA and supercoiled DNA were used as positive/negative controls. C5 and SN-38 were also used as controls.
Topo I activity on VL-DAB-SN38 was determined using the Human Topoisomerase I Assay Kit (Topogen, CO, USA) according to the manufacturer's instructions. […]

[2] = tested on: Jurkat cells; assay: Immunofluorescence of C5 with Jurkat cells; assay type: cell-based, human
[3] = tested on: Jurkat cells; assay: Flow cytometry binding of C5 VL sdAb to Jurkat cells; assay type: cell-based, human
Method: FIG. 8. Binding and internalization characterization of C5 VL sdAb. C5 binding and internalization properties against CLBL-1 cells were evaluated by cytometry and immunofluorescence. A) For flow cytometry analysis, 1×10^6 of CLBL-1 cells were incubated with Live/Dead reagents for 30 minutes. Then, 3 μM of C5 were incubated with the cells for different timepoints at 37° C. After, cells were washed, fixed, permeabilized, and incubated for 30 min with anti-HA antibody, washed twice and incubated with anti-rat Alexa Fluor-488. […] B) By contrast, no binding of C5 was detected with Jurkat cells. C) To confirm the binding of C5 to the CLBL-1 verified by flow cytometry, we evaluated its distribution on the cells by immunofluorescence assay. […] Representative microphotographs with C5 (green) and DAPI stained-nuclei (blue) are shown.
The C5 VL sdAb binding and cellular internalization properties towards CLBL-1 cells were studied by cytometry analysis and immunofluorescence. […] Live/dead reagent was used to exclude dead cells and the background noise was also evaluated in the control with the secondary antibody (data not shown). To better characterize the binding of the C5 to the CLBL-1 cells, we further evaluated the internalization of the C5 sdAb on the cells using an immunofluorescence assay. […]

[4] = tested on: Jurkat cells; assay: WST-1 cell viability assay on Jurkat cells; assay type: cell-based, human; settings: 48 h treatment
Method: (§1) FIG. 11—Cytotoxic effects of C5-DAB-SN-38. To determine the effect of C5-DAB-SN-38 on CLBL-1 and Jurkat cells, a cell viability assay was performed using the WST-1 reagent. 6×10^4 cells were seeded and treated with increasing amounts of compound. After 48 h treatment, cell viability was assessed. […] B) On the other hand, ADC had no effect on Jurkat cells, proving the specificity of the ADC. C5 was used as control. Best-fit EC50 values of each formulation were calculated using GraphPad Prism software (version 9.2.0, San Diego, CA, USA) using the log (inhibitor) vs response (variable slope) function. D) Effects of C5-DAB-SN-38 on DNA TopoI activity. To evaluate the effects of C5-DAB-SN-38 on DNA Topo I, we evaluated its activity using the Human Topoisomerase I Assay Kit. […]
(§2) To determine the effect of VL-DAB-SN-38 in CLBL-1 and Jurkat cell proliferation, a cell viability assay was performed using the Cell Proliferation Reagent WST-1 (Roche, Basel, Switzerland). […] After 48 h treatment, cell viability was assessed using WST-1, following the manufacturer's instructions. Absorbance at 450 nm was measured using the iMark microplate Reader (Bio-Rad). […] Best-fit EC50 values of each formulation were calculated using GraphPad Prism software (version 8.0, San Diego, CA, USA) using the log (inhibitor)) vs response (variable slope) function.

[5] = tested on: CLBL-1 cells; assay: WST-1 cell viability assay on CLBL-1 cells; assay type: cell-based, canine; settings: 48 h treatment
Method: as §1, §2

[6] = tested on: CLBL-1 xenograft tumours; settings: mouse, in vivo
Method: C5 was radiolabelled with ^99mTc(CO)3(H2O)3 and intravenously injected in the tail vein of a xenograft mice model of cNHL. Mice were sacrificed at 15 min and 3 h and the radioactivity of each organ was measured. The activity in each organ was calculated and expressed as a percentage of injected radioactivity dose per gram of organ or tissue (% ID/g).
Radiochemical purity (RP) was checked by Reversed-phase high-performance liquid chromatography (RP-HPLC) and instant thin-layer chromatography silica gel (ITLC-SG, Agilent Technologies, USA). […] Radioactivity distribution on the ITLC-SG strip was evaluated using a miniGita Star scanning device (Elysia-Raytest, (Germany) coupled with a Gamma BGO-V-Detector (Elysia Raytest). For purification and concentration of the ^99mTc-labeled sdAb, a 3 K Amicon (Merck Milipore) was used. ^99mTc(CO)3—C5 diluted in PBS was used for the biodistribution studies after RP determination by ITLC-SG. For that, mice were intravenously injected in the tail vein with 100 μl of ^99mTc(CO)3—C5 and sacrificed by cervical dislocation at 15 min, and 3 h after injection. Radioactivity was measured using a dose calibrator (Carpintec CRC-15W). After the removal of the tumour and tissues of interest, their radioactivity was measured using a γ-counter (Berthold, Germany). […]

B1: C5: rabbit derived anti-cNHL VL sdAb clone, SEQ. ID. 3; ^99mTc radiolabelled for biodistribution (antibody, listed as Oryctolagus cuniculus, V domains shown)
VL: ELDLTQTPSPVSASVGGTATINCQASQSVYNNYWWAWYQQRPGHPPKLLIYETSKLASGVPSRFKGSGSGTQFTLTIIDVQCDDAATYVCAGGYGTVIDNAFGGGTELEIL
modifications: 99mTc(CO)3 radiolabel
notes: ID; ^99mTc radiolabelled for biodistribution
- effect on DNA Topo I activity [1]: not able to alter enzyme activity
- fluorescence with Jurkat cells (immunofluorescence) [2]: no detectable fluorescence
- binding to Jurkat cells (flow cytometry) [3]: no binding interaction
- effect on Jurkat cell viability/proliferation [4]: does not affect cell proliferation
- effect on CLBL-1 (cNHL) cell viability/proliferation [5]: does not affect cell proliferation
- elimination from blood and major organs [6]: fast elimination
